The values that follow come from paper PMC9396398, “Crystal structure of Ankyrin-G in complex with a fragment of Neurofascin reveals binding mechanisms required for integrity of the axon initial segment” (The Journal of Biological Chemistry, 2022).

Assay [1] deals with T1, AnkG R8-16 (AnkG 275 to 571) (UniProt O70511 275-571).
T1 construct: Ankyrin-G (AnkG), ANK repeats 8-16, residues 275-571 (limits are told for the crystallisation construct); In the crystal it stood fused behind the Nfasc ABD; also called eighth to sixteenth ANK repeats; source: E. coli BL21 (DE3), purified (Ni-NTA, size-exclusion chromatography)
T1 sequence (looked up): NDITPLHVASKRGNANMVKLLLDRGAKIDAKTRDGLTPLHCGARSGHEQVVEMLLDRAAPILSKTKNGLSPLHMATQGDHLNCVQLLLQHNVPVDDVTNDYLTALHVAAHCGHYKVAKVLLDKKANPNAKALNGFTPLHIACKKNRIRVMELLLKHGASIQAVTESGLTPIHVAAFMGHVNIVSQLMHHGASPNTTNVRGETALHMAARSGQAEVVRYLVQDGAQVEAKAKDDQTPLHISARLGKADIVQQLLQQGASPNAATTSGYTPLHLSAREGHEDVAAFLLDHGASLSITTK
Kind of assay: ITC; VP-ITC at 25 °C; 50 mM Tris, 100 mM NaCl, 1 mM EDTA, 1 mM DTT, pH 7.8; Nfasc proteins (200 μM) in the syringe, AnkG proteins (20 μM) in the cell; one-site binding model. The conditions noted are these: both partners purified.

For assay [2], the target named is T2, AnkG ANK repeats (residues 38-855, R1-24) (UniProt O70511 38-855).
T2 construct: Ankyrin-G (AnkG), ANK repeats R1-24, residues 38-855; In human Q12955 the same residues seem to stand 8 lower (I277 here = I269 there); Cloned into a modified pET32a vector; the tag is said to be removed only for the crystallisation proteins; also called AnkG R1-24; Ankyrin-G ankyrin repeats; source: E. coli BL21 (DE3), purified (Ni-NTA, size-exclusion chromatography)
T2 sequence (looked up): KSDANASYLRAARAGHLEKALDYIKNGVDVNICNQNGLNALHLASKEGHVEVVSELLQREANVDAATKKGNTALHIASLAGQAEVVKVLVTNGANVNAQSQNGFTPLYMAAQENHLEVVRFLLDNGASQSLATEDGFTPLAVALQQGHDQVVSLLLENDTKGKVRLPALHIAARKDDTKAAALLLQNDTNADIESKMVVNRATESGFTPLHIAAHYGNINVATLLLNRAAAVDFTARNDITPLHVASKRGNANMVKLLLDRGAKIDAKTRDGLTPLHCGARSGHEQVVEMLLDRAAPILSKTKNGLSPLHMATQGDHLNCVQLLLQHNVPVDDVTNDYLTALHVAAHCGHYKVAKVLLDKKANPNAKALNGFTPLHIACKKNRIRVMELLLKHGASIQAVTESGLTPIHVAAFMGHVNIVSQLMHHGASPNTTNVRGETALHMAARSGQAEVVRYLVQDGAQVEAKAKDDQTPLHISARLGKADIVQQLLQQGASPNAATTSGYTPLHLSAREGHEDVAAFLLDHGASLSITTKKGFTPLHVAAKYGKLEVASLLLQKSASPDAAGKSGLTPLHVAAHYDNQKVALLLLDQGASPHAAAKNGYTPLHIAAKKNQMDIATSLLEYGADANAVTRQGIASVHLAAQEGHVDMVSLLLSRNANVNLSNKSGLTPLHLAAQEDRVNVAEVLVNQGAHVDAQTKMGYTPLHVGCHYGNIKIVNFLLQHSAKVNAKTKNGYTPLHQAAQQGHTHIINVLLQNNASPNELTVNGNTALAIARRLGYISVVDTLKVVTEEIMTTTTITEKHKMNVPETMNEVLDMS
Described as above. The note with it: both partners purified.

B1: Nfasc ankyrin-binding domain (ABD, residues 1187-1214) (domain or fragment, UniProt P97685 1187-1214, looked up)
chain: SDDSLVDYGEGGEGQFNEDGSFIGQYTV
notes: also called Nfasc ABD; source: E. coli BL21 (DE3), purified (Ni-NTA, size-exclusion chromatography)
For orientation: Kd means a measure of binding affinity in units of concentration. With B1, the Kd in assay [1] is roughly 1.2 µM; in assay [2] it was roughly 0.22 µM.
